Measured values as given in patent US20220024981A1 (Novartis, published 2022).
Bridge positions count the residues as written; N and C are the ends. Square brackets hold non-standard residues; d marks the D form. Phe(3,4-Cl2) = N[C@@H](Cc1ccc(Cl)c(Cl)c1)C(=O)O; Bip = N[C@@H](Cc1ccc(-c2ccccc2)cc1)C(=O)O; Phe(3-F) = N[C@@H](Cc1cccc(F)c1)C(=O)O; NMeF = CN[C@@H](Cc1ccccc1)C(=O)O; NMeA = CN[C@@H](C)C(=O)O

Target: T1, Human PCSK9 Alexa Fluor 647 (human, UniProt Q8NBP7 31-692, limits assumed, Alexa Fluor 647 label (site not stated))
T1 construct: Labelled tracer of the TR-FRET assay, 16 nM stock; also called proprotein convertase subtilisin/kexin type 9
T1 sequence (Q8NBP7 31-692 limits assumed): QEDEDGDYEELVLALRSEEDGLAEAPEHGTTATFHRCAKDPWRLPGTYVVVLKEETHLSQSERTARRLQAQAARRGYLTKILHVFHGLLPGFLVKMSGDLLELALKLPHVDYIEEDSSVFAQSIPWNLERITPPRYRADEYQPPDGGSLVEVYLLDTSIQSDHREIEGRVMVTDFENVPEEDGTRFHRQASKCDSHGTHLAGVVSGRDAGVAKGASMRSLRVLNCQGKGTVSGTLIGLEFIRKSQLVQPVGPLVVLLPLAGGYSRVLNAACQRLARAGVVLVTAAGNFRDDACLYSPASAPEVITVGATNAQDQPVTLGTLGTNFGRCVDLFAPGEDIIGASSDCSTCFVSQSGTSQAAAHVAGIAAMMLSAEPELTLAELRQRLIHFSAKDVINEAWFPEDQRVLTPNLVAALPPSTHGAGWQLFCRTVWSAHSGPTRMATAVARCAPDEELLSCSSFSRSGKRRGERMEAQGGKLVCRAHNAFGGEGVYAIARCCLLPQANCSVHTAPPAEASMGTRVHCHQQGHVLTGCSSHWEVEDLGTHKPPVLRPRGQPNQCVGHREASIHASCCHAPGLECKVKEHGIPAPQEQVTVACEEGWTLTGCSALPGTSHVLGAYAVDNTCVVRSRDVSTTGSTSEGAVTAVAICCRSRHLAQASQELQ
Assay: TR-FRET competition: PCSK9-Alexa Fluor 647 vs LDLR ECD-Eu kryptate
Description: A Proxi plate-low volume assay plate was used for the assay. […] Following a 30 minute incubation, 5 uL of 4 nM Human LDLR extracellular domain-Europium Kryptate was added and the mixture was incubated for an additional 2 hours.
The TR-FRET signal was measured on an EnVision or PheraStar instrument with a 60 μs delay, 330 nm excitation and 665 nm emission (FRET), and 330 nm excitation and 615 nm (Europium). The FRET ratio (FRET/Europium) was used for calculations.

B1: Ac*-F-V-S-T-T-B-(N-Me)A-(3,4-diCl)F-(N-Me)A-D-R-P-C*-G-NH2 (peptide)
peptide: {CH2CO}-FVSTT[Bip][NMeA][Phe(3,4-Cl2)][NMeA]DRPCG-NH2
modifications: thioether N-13
SMILES: CC(C)[C@@H]1NC(=O)[C@H](Cc2ccccc2)NC(=O)CSC[C@@H](C(=O)NCC(N)=O)NC(=O)[C@@H]2CCCN2C(=O)[C@H](CCCNC(=N)N)NC(=O)[C@H](CC(=O)O)NC(=O)[C@H](C)N(C)C(=O)[C@H](Cc2ccc(Cl)c(Cl)c2)NC(=O)[C@H](C)N(C)C(=O)[C@H](Cc2ccc(-c3ccccc3)cc2)NC(=O)[C@H]([C@@H](C)O)NC(=O)[C@H]([C@@H](C)O)NC(=O)[C@H](CO)NC1=O
notes: also called 1-14; Ex. No. 1-14
With B1 the IC50 was 1.2 nM and the Maximum % inhibition was 49%.

B2: Ac*-F-V-S-T-T-B-(N-Me)A-(3-F)F-(N-Me)A-D-R-P-C*-G-NH2 (peptide)
peptide: {CH2CO}-FVSTT[Bip][NMeA][Phe(3-F)][NMeA]DRPCG-NH2
modifications: thioether N-13
SMILES: CC(C)[C@@H]1NC(=O)[C@H](Cc2ccccc2)NC(=O)CSC[C@@H](C(=O)NCC(N)=O)NC(=O)[C@@H]2CCCN2C(=O)[C@H](CCCNC(=N)N)NC(=O)[C@H](CC(=O)O)NC(=O)[C@H](C)N(C)C(=O)[C@H](Cc2cccc(F)c2)NC(=O)[C@H](C)N(C)C(=O)[C@H](Cc2ccc(-c3ccccc3)cc2)NC(=O)[C@H]([C@@H](C)O)NC(=O)[C@H]([C@@H](C)O)NC(=O)[C@H](CO)NC1=O
notes: also called 1-15; Ex. No. 1-15
Work on B2 yielded an IC50 of 12 nM and a Maximum % inhibition of 53%.

With {CH2CO}-FVSTT[Bip][NMeA][Bip][NMeA]DRPCG-NH2 (thioether N-13, also called 1-2; Ex. No. 1-2) [Ac*-F-V-S-T-T-B-(N-Me)A-B-(N-Me)A-D-R-P-C*-G-NH2] the IC50 was 1.3 nM.

B3: Ac*-F-V-S-T-T-B-(N-Me)A-B-(N-Me)A-E-S-P-C*-G-NH2 (peptide)
peptide: FVSTTXAXAESPCG
modifications: not fully specified; N-terminal acetyl (Ac*) joined by a sulfide bond to the side chain of Cys13 (cyclic); 6: L-Bip; 7: L-(N-Me)Ala; 8: L-Bip; 9: L-(N-Me)Ala; C-terminal amide (NH2)
notes: also called 1-25; Ex. No. 1-25
B3 gave an IC50 of 2.5 nM and a Maximum % inhibition of 68%.

B4: Ac*-F-V-S-T-T-B-(N-Me)A-B-(N-Me)A-P-S-P-C*-G-NH2 (peptide)
peptide: FVSTTXAXAPSPCG
modifications: not fully specified; N-terminal acetyl (Ac*) joined by a sulfide bond to the side chain of Cys13 (cyclic); 6: L-Bip; 7: L-(N-Me)Ala; 8: L-Bip; 9: L-(N-Me)Ala; C-terminal amide (NH2)
notes: also called 1-20; Ex. No. 1-20
Binder B4 has an IC50 of 8.1 nM and a Maximum % inhibition of 35%.

B5: Ac*-F-V-S-T-T-B-(N-Me)F-B-(N-Me)A-E-S-P-C*-G-NH2 (peptide)
peptide: FVSTTXFXAESPCG
modifications: not fully specified; N-terminal acetyl (Ac*) joined by a sulfide bond to the side chain of Cys13 (cyclic); 6: L-Bip; 7: L-(N-Me)Phe; 8: L-Bip; 9: L-(N-Me)Ala; C-terminal amide (NH2)
notes: also called 1-13; Ex. No. 1-13
B5 was tested, and the IC50 was 7.8 nM and the Maximum % inhibition was 86%.

B6: Ac*-F-V-S-T-T-S-(N-Me)F-B-(N-Me)A-D-R-P-C*-G-NH2 (peptide)
peptide: FVSTTSFXADRPCG
modifications: not fully specified; N-terminal acetyl (Ac*) joined by a sulfide bond to the side chain of Cys13 (cyclic); 7: L-(N-Me)Phe; 8: L-Bip; 9: L-(N-Me)Ala; C-terminal amide (NH2)
notes: also called 1-9; Ex. No. 1-9
For B6, the IC50 was 3 nM and the Maximum % inhibition was 35%.

B7: Ac*-F-V-D-T-T-A-(N-Me)F-B-(N-Me)A-E-A-P-C*-G-NH2 (peptide)
peptide: {CH2CO}-FVDTTA[NMeF][Bip][NMeA]EAPCG-NH2
modifications: thioether N-13
SMILES: CC(C)[C@@H]1NC(=O)[C@H](Cc2ccccc2)NC(=O)CSC[C@@H](C(=O)NCC(N)=O)NC(=O)[C@@H]2CCCN2C(=O)[C@H](C)NC(=O)[C@H](CCC(=O)O)NC(=O)[C@H](C)N(C)C(=O)[C@H](Cc2ccc(-c3ccccc3)cc2)NC(=O)[C@H](Cc2ccccc2)N(C)C(=O)[C@H](C)NC(=O)[C@H]([C@@H](C)O)NC(=O)[C@H]([C@@H](C)O)NC(=O)[C@H](CC(=O)O)NC1=O
notes: also called 1-16; Ex. No. 1-16
In the case of B7, the IC50 is reported as 7.4 nM and the Maximum % inhibition is reported as 91%.

B8: Ac*-F-V-P-T-T-A-(N-Me)F-B-(N-Me)A-E-A-P-C*-G-NH2 (peptide)
peptide: {CH2CO}-FVPTTA[NMeF][Bip][NMeA]EAPCG-NH2
modifications: thioether N-13; not fully specified
notes: The three-letter form of the same entry prints L-Arg at position 11 where the one-letter form prints A; also called 1-21; Ex. No. 1-21
Binder B8 has an IC50 of 7.2 nM and a Maximum % inhibition of 81%.

B9: Ac*-F-V-D-T-T-F-(N-Me)A-B-(N-Me)A-E-S-P-C*-G-NH2 (peptide)
peptide: {CH2CO}-FVDTTF[NMeA][Bip][NMeA]ESPCG-NH2
modifications: thioether N-13
SMILES: CC(C)[C@@H]1NC(=O)[C@H](Cc2ccccc2)NC(=O)CSC[C@@H](C(=O)NCC(N)=O)NC(=O)[C@@H]2CCCN2C(=O)[C@H](CO)NC(=O)[C@H](CCC(=O)O)NC(=O)[C@H](C)N(C)C(=O)[C@H](Cc2ccc(-c3ccccc3)cc2)NC(=O)[C@H](C)N(C)C(=O)[C@H](Cc2ccccc2)NC(=O)[C@H]([C@@H](C)O)NC(=O)[C@H]([C@@H](C)O)NC(=O)[C@H](CC(=O)O)NC1=O
notes: also called 1-17; Ex. No. 1-17
B9 gave an IC50 of 17 nM and a Maximum % inhibition of 91%.

B10: Ac*-F-V-N-T-T-A-(N-Me)F-B-(N-Me)A-Q-A-P-C*-G-NH2 (peptide)
peptide: {CH2CO}-FVNTTA[NMeF][Bip][NMeA]QAPCG-NH2
modifications: thioether N-13
SMILES: CC(C)[C@@H]1NC(=O)[C@H](Cc2ccccc2)NC(=O)CSC[C@@H](C(=O)NCC(N)=O)NC(=O)[C@@H]2CCCN2C(=O)[C@H](C)NC(=O)[C@H](CCC(N)=O)NC(=O)[C@H](C)N(C)C(=O)[C@H](Cc2ccc(-c3ccccc3)cc2)NC(=O)[C@H](Cc2ccccc2)N(C)C(=O)[C@H](C)NC(=O)[C@H]([C@@H](C)O)NC(=O)[C@H]([C@@H](C)O)NC(=O)[C@H](CC(N)=O)NC1=O
notes: also called 1-18; Ex. No. 1-18
B10 showed an IC50 of 11 nM and a Maximum % inhibition of 53%.

B11: Ac*-F-V-A-T-T-F-(N-Me)A-B-(N-Me)A-K-A-P-C*-G-NH2 (peptide)
peptide: {CH2CO}-FVATTF[NMeA][Bip][NMeA]KAPCG-NH2
modifications: thioether N-13
SMILES: CC(C)[C@@H]1NC(=O)[C@H](Cc2ccccc2)NC(=O)CSC[C@@H](C(=O)NCC(N)=O)NC(=O)[C@@H]2CCCN2C(=O)[C@H](C)NC(=O)[C@H](CCCCN)NC(=O)[C@H](C)N(C)C(=O)[C@H](Cc2ccc(-c3ccccc3)cc2)NC(=O)[C@H](C)N(C)C(=O)[C@H](Cc2ccccc2)NC(=O)[C@H]([C@@H](C)O)NC(=O)[C@H]([C@@H](C)O)NC(=O)[C@H](C)NC1=O
notes: also called 1-22; Ex. No. 1-22
In the case of B11, the IC50 is reported as 12 nM and the Maximum % inhibition is reported as 49%.

B12: Ac*-F-V-N-T-T-F-(N-Me)A-B-(N-Me)A-K-A-P-C*-G-NH2 (peptide)
peptide: {CH2CO}-FVNTTF[NMeA][Bip][NMeA]KAPCG-NH2
modifications: thioether N-13
SMILES: CC(C)[C@@H]1NC(=O)[C@H](Cc2ccccc2)NC(=O)CSC[C@@H](C(=O)NCC(N)=O)NC(=O)[C@@H]2CCCN2C(=O)[C@H](C)NC(=O)[C@H](CCCCN)NC(=O)[C@H](C)N(C)C(=O)[C@H](Cc2ccc(-c3ccccc3)cc2)NC(=O)[C@H](C)N(C)C(=O)[C@H](Cc2ccccc2)NC(=O)[C@H]([C@@H](C)O)NC(=O)[C@H]([C@@H](C)O)NC(=O)[C@H](CC(N)=O)NC1=O
notes: also called 1-23; Ex. No. 1-23
B12 showed an IC50 of 22 nM and a Maximum % inhibition of 36%.

B13: Ac*-F-V-S-T-T-F-(N-Me)A-B-(N-Me)A-E-A-P-C*-G-NH2 (peptide)
peptide: FVSTTFAXAEAPCG
modifications: not fully specified; N-terminal acetyl (Ac*) joined by a sulfide bond to the side chain of Cys13 (cyclic); 7: L-(N-Me)Ala; 8: L-Bip; 9: L-(N-Me)Ala; C-terminal amide (NH2)
notes: also called 1-24; Ex. No. 1-24
B13 was tested, and the IC50 was 6.8 nM and the Maximum % inhibition was 70%.

B14: Ac*-F-E-N-T-T-F-(N-Me)A-B-(N-Me)A-A-S-P-C*-G-NH2 (peptide)
peptide: {CH2CO}-FENTTF[NMeA][Bip][NMeA]ASPCG-NH2
modifications: thioether N-13
SMILES: C[C@@H]1NC(=O)[C@H](C)N(C)C(=O)[C@H](Cc2ccc(-c3ccccc3)cc2)NC(=O)[C@H](C)N(C)C(=O)[C@H](Cc2ccccc2)NC(=O)[C@H]([C@@H](C)O)NC(=O)[C@H]([C@@H](C)O)NC(=O)[C@H](CC(N)=O)NC(=O)[C@H](CCC(=O)O)NC(=O)[C@H](Cc2ccccc2)NC(=O)CSC[C@@H](C(=O)NCC(N)=O)NC(=O)[C@@H]2CCCN2C(=O)[C@H](CO)NC1=O
notes: also called 1-27; Ex. No. 1-27
In the case of B14, the IC50 is reported as 410 nM and the Maximum % inhibition is reported as 55%.

B15: Ac*-F-V-P-T-T-F-(N-Me)A-B-(N-Me)A-E-A-P-C*-NHEt (peptide)
peptide: {CH2CO}-FVPTTF[NMeA][Bip][NMeA]EAPC-NHEt
modifications: thioether N-13
SMILES: CCNC(=O)[C@@H]1CSCC(=O)N[C@@H](Cc2ccccc2)C(=O)N[C@@H](C(C)C)C(=O)N2CCC[C@H]2C(=O)N[C@@H]([C@@H](C)O)C(=O)N[C@@H]([C@@H](C)O)C(=O)N[C@@H](Cc2ccccc2)C(=O)N(C)[C@@H](C)C(=O)N[C@@H](Cc2ccc(-c3ccccc3)cc2)C(=O)N(C)[C@@H](C)C(=O)N[C@@H](CCC(=O)O)C(=O)N[C@@H](C)C(=O)N2CCC[C@H]2C(=O)N1
notes: also called 3-2; Ex. No. 3-2
With B15 the IC50 was 4.2 nM and the Maximum % inhibition was 83%.
